Laboratory results reported in the supplement of paper PMC9112550, “Optimization of the antimicrobial peptide Bac7 by deep mutational scanning” (BMC Biology, 2022).

tested on: Escherichia coli TOP10; assay: shrunken log2 fold change of peptide-encoding DNA abundance (4.5 h post-induction vs induction); higher = less antimicrobial activity (less host growth inhibition); settings: time post-induction: 4.5 h; library: site-saturation at positions 5, 18, 19, 20
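Note: peptides expressed intracellularly from a pBAD plasmid library in pooled LB shake-flask culture, induced with 0.3% L-arabinose, DNA abundance read by NGS, three biological replicates, DESeq2 with apeglm shrinkage.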

Sequence | shrunken log2 fold change
RRIRVRPPRLPRPRPRPWPQPRP | 0.104
RRIRVRPPRLPRPRPRPWRDPRP | 0.202
RRIRVRPPRLPRPRPRPWRRPRP | 0.208
RRIRVRPPRLPRPRPRPWRVPRP | 0.435
RRIRVRPPRLPRPRPRPWSAPRP | -0.135
RRIRVRPPRLPRPRPRPWTSPRP | -0.329
RRIRVRPPRLPRPRPRPWVQPRP | -0.021
RRIRVRPPRLPRPRPRPWWCPRP | -0.0966
RRIRVRPPRLPRPRPRPWYWPRP | -0.332
RRIRVRPPRLPRPRPRPYCKPRP | -1.15
RRIRVRPPRLPRPRPRPYEWPRP | -0.303
RRIRVRPPRLPRPRPRPYFMPRP | -0.797
RRIRVRPPRLPRPRPRPYGCPRP | -0.00989
RRIRVRPPRLPRPRPRPYGWPRP | -0.0905
RRIRVRPPRLPRPRPRPYHEPRP | -0.159
RRIRVRPPRLPRPRPRPYIFPRP | -0.864
RRIRVRPPRLPRPRPRPYKGPRP | -0.294
RRIRVRPPRLPRPRPRPYKRPRP | -0.0182
RRIRVRPPRLPRPRPRPYLNPRP | -0.16
RRIRVRPPRLPRPRPRPYLQPRP | -0.946
RRIRVRPPRLPRPRPRPYPVPRP | -0.419
RRIRVRPPRLPRPRPRPYQVPRP | -0.293
RRIRVRPPRLPRPRPRPYRSPRP | -1.55
RRIRVRPPRLPRPRPRPYRYPRP | -0.228
RRIRVRPPRLPRPRPRPYSMPRP | -0.692

Sequence | shrunken log2 fold change
RRIRVRPPRLPRPRPRPYTNPRP | -0.656
RRIRVRPPRLPRPRPRPYTWPRP | -0.364
RRIRVRPPRLPRPRPRPYVDPRP | -0.0757
RRIRVRPPRLPRPRPRPYVHPRP | -0.104
RRIRVRPPRLPRPRPRPYVKPRP | -0.354
RRIRVRPPRLPRPRPRPYYLPRP | -0.286
RRIRWRPPRLPRPRPRPAACPRP | 0.0948
RRIRWRPPRLPRPRPRPAAPPRP | 0.613
RRIRWRPPRLPRPRPRPAEFPRP | 0.292
RRIRWRPPRLPRPRPRPAERPRP | 0.0973
RRIRWRPPRLPRPRPRPAFPPRP | 0.446
RRIRWRPPRLPRPRPRPAGDPRP | 0.363
RRIRWRPPRLPRPRPRPAHHPRP | -0.0193
RRIRWRPPRLPRPRPRPAHNPRP | 0.352
RRIRWRPPRLPRPRPRPAIFPRP | 0.327
RRIRWRPPRLPRPRPRPAIRPRP | 0.639
RRIRWRPPRLPRPRPRPAKRPRP | -0.0468
RRIRWRPPRLPRPRPRPAMFPRP | 0.324
RRIRWRPPRLPRPRPRPAMQPRP | 0.298
RRIRWRPPRLPRPRPRPAPCPRP | 0.322
RRIRWRPPRLPRPRPRPAQNPRP | 0.437
RRIRWRPPRLPRPRPRPAQSPRP | 0.135
RRIRWRPPRLPRPRPRPASCPRP | 0.241
RRIRWRPPRLPRPRPRPASHPRP | 0.187
RRIRWRPPRLPRPRPRPASIPRP | -0.336

Sequence | shrunken log2 fold change
RRIRWRPPRLPRPRPRPASPPRP | 0.131
RRIRWRPPRLPRPRPRPATAPRP | 0.983
RRIRWRPPRLPRPRPRPAVFPRP | 0.354
RRIRWRPPRLPRPRPRPAVSPRP | 0.127
RRIRWRPPRLPRPRPRPAYQPRP | 0.106
RRIRWRPPRLPRPRPRPCCDPRP | 0.0279
RRIRWRPPRLPRPRPRPCCGPRP | 0.293
RRIRWRPPRLPRPRPRPCCMPRP | -0.196
RRIRWRPPRLPRPRPRPCCQPRP | 0.0191
RRIRWRPPRLPRPRPRPCCRPRP | 0.174
RRIRWRPPRLPRPRPRPCCYPRP | -0.295
RRIRWRPPRLPRPRPRPCDCPRP | -0.291
RRIRWRPPRLPRPRPRPCDGPRP | 0.0333
RRIRWRPPRLPRPRPRPCERPRP | -0.0115
RRIRWRPPRLPRPRPRPCEWPRP | 0.0102
RRIRWRPPRLPRPRPRPCFTPRP | -0.0397
RRIRWRPPRLPRPRPRPCGRPRP | 0.376
RRIRWRPPRLPRPRPRPCHLPRP | -0.211
RRIRWRPPRLPRPRPRPCIFPRP | -0.683
RRIRWRPPRLPRPRPRPCISPRP | 0.169
RRIRWRPPRLPRPRPRPCITPRP | -0.0175
RRIRWRPPRLPRPRPRPCKKPRP | 0.0155
RRIRWRPPRLPRPRPRPCKWPRP | -0.275
RRIRWRPPRLPRPRPRPCLFPRP | -0.00127
RRIRWRPPRLPRPRPRPCLMPRP | -0.225

Sequence | shrunken log2 fold change
RRIRWRPPRLPRPRPRPCLWPRP | 0.0333
RRIRWRPPRLPRPRPRPCMAPRP | 0.312
RRIRWRPPRLPRPRPRPCNGPRP | -0.0973
RRIRWRPPRLPRPRPRPCPFPRP | -0.646
RRIRWRPPRLPRPRPRPCPNPRP | -0.184
RRIRWRPPRLPRPRPRPCQAPRP | 0.201
RRIRWRPPRLPRPRPRPCQVPRP | -0.0191
RRIRWRPPRLPRPRPRPCQYPRP | 0.0863
RRIRWRPPRLPRPRPRPCRYPRP | -0.129
RRIRWRPPRLPRPRPRPCSSPRP | -0.259
RRIRWRPPRLPRPRPRPCVSPRP | 0.144
RRIRWRPPRLPRPRPRPCYMPRP | -0.282
RRIRWRPPRLPRPRPRPDALPRP | 0.63
RRIRWRPPRLPRPRPRPDCGPRP | 0.885
RRIRWRPPRLPRPRPRPDDCPRP | -0.0829
RRIRWRPPRLPRPRPRPDDQPRP | -0.0297
RRIRWRPPRLPRPRPRPDEDPRP | 0.299
RRIRWRPPRLPRPRPRPDEFPRP | 0.196
RRIRWRPPRLPRPRPRPDEHPRP | 0.0519
RRIRWRPPRLPRPRPRPDGFPRP | -0.0231
RRIRWRPPRLPRPRPRPDIAPRP | 0.0944
RRIRWRPPRLPRPRPRPDKCPRP | -0.134
RRIRWRPPRLPRPRPRPDMHPRP | 0.199
RRIRWRPPRLPRPRPRPDNQPRP | -0.265
RRIRWRPPRLPRPRPRPDPFPRP | -0.0639

Sequence | shrunken log2 fold change
RRIRWRPPRLPRPRPRPDQAPRP | 0.11
RRIRWRPPRLPRPRPRPDQSPRP | 0.0237
RRIRWRPPRLPRPRPRPDQYPRP | -0.154
RRIRWRPPRLPRPRPRPDRYPRP | -0.0301
RRIRWRPPRLPRPRPRPDSQPRP | -0.0844
RRIRWRPPRLPRPRPRPDSTPRP | -0.0382
RRIRWRPPRLPRPRPRPDTHPRP | 0.219
RRIRWRPPRLPRPRPRPDVRPRP | -0.0136
RRIRWRPPRLPRPRPRPDWPPRP | 0.332
RRIRWRPPRLPRPRPRPEAEPRP | 1.53
RRIRWRPPRLPRPRPRPEDKPRP | -0.028
RRIRWRPPRLPRPRPRPEFEPRP | 0.0113
RRIRWRPPRLPRPRPRPEFVPRP | 0.423
RRIRWRPPRLPRPRPRPEHWPRP | 0.83
RRIRWRPPRLPRPRPRPEIFPRP | 0.0932
RRIRWRPPRLPRPRPRPEIRPRP | 0.00534
RRIRWRPPRLPRPRPRPEISPRP | -0.161
RRIRWRPPRLPRPRPRPEIWPRP | 1
RRIRWRPPRLPRPRPRPELSPRP | 0.101
RRIRWRPPRLPRPRPRPENGPRP | -0.109
RRIRWRPPRLPRPRPRPENHPRP | -0.176
RRIRWRPPRLPRPRPRPENTPRP | 0.167
RRIRWRPPRLPRPRPRPEPMPRP | 0.38
RRIRWRPPRLPRPRPRPEPQPRP | 0.818
RRIRWRPPRLPRPRPRPEPVPRP | -0.0131

Sequence | shrunken log2 fold change
RRIRWRPPRLPRPRPRPEPYPRP | 0.0876
RRIRWRPPRLPRPRPRPERQPRP | 0.353
RRIRWRPPRLPRPRPRPERWPRP | 1.14
RRIRWRPPRLPRPRPRPETGPRP | 0.396
RRIRWRPPRLPRPRPRPETPPRP | 1.33
RRIRWRPPRLPRPRPRPEYEPRP | -0.0434
RRIRWRPPRLPRPRPRPEYIPRP | -0.0519
RRIRWRPPRLPRPRPRPFAGPRP | 0.0847
RRIRWRPPRLPRPRPRPFATPRP | 0.834
RRIRWRPPRLPRPRPRPFAVPRP | 0.157
RRIRWRPPRLPRPRPRPFCPPRP | -0.318
RRIRWRPPRLPRPRPRPFDAPRP | 0.029
RRIRWRPPRLPRPRPRPFFVPRP | 0.173
RRIRWRPPRLPRPRPRPFGAPRP | 0.197
RRIRWRPPRLPRPRPRPFGRPRP | -0.0754
RRIRWRPPRLPRPRPRPFGTPRP | 0.00184
RRIRWRPPRLPRPRPRPFIDPRP | -0.046
RRIRWRPPRLPRPRPRPFKFPRP | -0.174
RRIRWRPPRLPRPRPRPFLHPRP | -0.772
RRIRWRPPRLPRPRPRPFMDPRP | -0.41
RRIRWRPPRLPRPRPRPFNDPRP | -0.153
RRIRWRPPRLPRPRPRPFNRPRP | -0.0167
RRIRWRPPRLPRPRPRPFPAPRP | 0.342
RRIRWRPPRLPRPRPRPFPMPRP | -0.111
RRIRWRPPRLPRPRPRPFQQPRP | -0.0106
